The text below walks through data of US7417025B2, “Use of poly-α2,8-sialic acid mimetic peptides to modulate NCAM functions” (Centre National de la Recherche Scientifique, priority 2002, dated 2008).

One test addresses BSA (Bos taurus, UniProt P02769). In words: Peptide-BSA conjugate ELISA, control wells coated only with blocking solution (BSA). The conditions noted are these: biotinylated peptide-BSA conjugate, BSA-blocked wells, no mAb. Type of test: binding. The text has this:
• mAb 735 and 30H12 • MaxiSorp™ plates (NUNC) for coating the antibody: ELISA plates • microtiter plates (NUNC) for peptide dilution: dilution plates • Biotinylated peptide-BSA conjugates prepared as above described • Extravidin alkaline phosphatase-avidin conjugate (SIGMA E2636) • p-nitrophenyl-phosphatase alkaline substrate (SIGMA 104-105) 2.1.2) Buffers • PBS pH 7.4 • Blocking solution: 0.5% BSA in PBS • TBS • TBST: TBS containing 0.05% Tween 20 • Extravidin alkaline phosphatase-avidin conjugate solution: 1/5000 in TBST • Alkaline phosphatase substrate solution; 1 tablet in 5 ml 50 mM NaHCO3, 1 mM MgCl2 solution, pH 9.6. • mixed competitor solution: 1 mM colominic acid with a peptide-BSA conjugate gradient in TBST 2.1.3) Method
Maxisorp™ plate wells were coated with 100 μl mAb solution (25 μg/ml) for 2 h at room temperature. The control wells of the ELISA plates were only coated with the blocking solution. In parallel, the peptide-BSA conjugate dilution plates were blocked with 200 μl blocking solution for 2 h. The antibody coated wells and the control wells were blocked with 200 μl blocking solution for 1 h. In parallel the peptide-BSA conjugate dilution plates were washed 6 times with TBST and 120 μl TBST was added to the wells. An appropriate volume of peptide-BSA conjugate solution was added to the first well and the volume adjusted to 140 μl with TBST. The peptide-BSA conjugate in well one was diluted in the ratio 1/7 by taking 20 μl out of the first well and transferring into the second also to achieve the total volume of 140 μl. This was repeated for the remaining wells. The peptide-BSA conjugate dilutions for the control wells were done the same way. The blocked ELISA plates were washed 6 times with TBST and the peptide-BSA conjugate dilutions or 100 μl of the mixed competitor solution was added to the wells. After incubation for 1 h, the wells were washed 10 times with TBST and 100 μl of the alkaline phosphatase substrate solution was added to the wells. The plates were read out after 10 to 60 min using a microplate reader at 405 nm.
The specificity of peptide p21 (SEQ ID NO: 1) was investigated in a competition ELISA using biotinylated p21-BSA conjugate and a randomized variant of p21 (p22) conjugate as a control. The results presented in Tables X and XI are expressed as percentage of binding by comparison with peptide p21 at the highest concentration (9.45 10^-5 M) which corresponds to 100% binding.

In the next test the test system is 30H12 antibody. In words: ELISA with peptide-BSA conjugate on 30H12-coated plates. The following applies: no competitor, FIG. 12A. Type of test: binding. The text has this:
FIG. 12A: ELISA using 30H12 anti-PSA monoclonal antibody-coated plates.
The specificity of the cyclic peptides was investigated in an ELISA assay using plates coated with 30H12 antibody, following the protocol as described above for the competitive ELISA, with the exception that the competitor was omitted.
In general terms: An ELISA detects its analyte on a solid surface through an enzyme-linked reagent.

Test [1] relates to Mouse dorsal root ganglion explants (E13.5). In words: Dorsal root ganglion explant culture: neurite outgrowth and fasciculation. In kind it is cell-based. The procedure:
E13.5 DRGs were dissected out from mice embryos in HBSS medium and seeded on glass coverslips coated with polylysine or with peptides linked to BSA. Explants were cultured in the presence or the absence of the peptides under soluble form (40 μM) in two ml of neurobasal medium (DMEM/Ham's F12, 3:1 (V/V), GIBCO, buffered with 20 mM Hepes), supplemented as described in Faivre-Sarrailh et al., J. Cell. Sci., 1999, 18, 3015-3027 and Chazal et al., J.Neurosci., 2000, 20, 1446-1457.
Fixed DRGs (Dorsal Root ganglia) explants and sections were incubated at 4° C. respectively 2 hr with an anti-neurofilament (SMI-31, dilution 1:800, STERNBERGER MONOCLONALS) and overnight with an anti-PSA antibody (dilution 1:200, Rougon et al, J. Cell. Biol., 1986, 103, 2429-2437). Revelation was performed by 1 hr incubation with the corresponding fluorescent-labeled secondary antibody (Goat anti-mouse IgM or IgG conjugated with texas red, IMMUNOTECH)
After 48 h in culture, explants were examining directly (SVZ) or after overnight fixation with a 4% paraformaldehyde solution in PBS and immunostaining (DRGs). Observation was done using 2, 5×, 5×, 10× and 32× objectives (Axiovert 35M, ZEISS). Images were collected with a video camera (Cool View, PHOTONIC SCIENCE) and analysed using image-processing software (Visiolab1000, BIOCOM). Mean migration distance (calculated on five different experiments, including at least five explants per condition) or mean length of the longest neurite (calculated on two different experiments, including at least eight explants per condition), was the distance in micrometers between the explant edge and the border of the cell migration front. Four measurements were performed for each explant. The significance of the differences between the control and the different experimental conditions was calculated by Student's t test.
Mouse dorsal root ganglion explants (E13.5) were cultured in the presence of p65 and p66 cyclic mimetic peptides, either in soluble form or coated on the microplates as BSA conjugates. Cells cultured in the absence of peptides or in the presence of reverse peptides (coated or in soluble form) were used as controls.

The mark [2] stands for this setting: peptide in coated form (BSA conjugate).
Where [3] appears, read: peptide in soluble form (40 μM), versus controls.

“Also recorded” adds a separate entry of the source.

Chain of BSA (P02769 25-607): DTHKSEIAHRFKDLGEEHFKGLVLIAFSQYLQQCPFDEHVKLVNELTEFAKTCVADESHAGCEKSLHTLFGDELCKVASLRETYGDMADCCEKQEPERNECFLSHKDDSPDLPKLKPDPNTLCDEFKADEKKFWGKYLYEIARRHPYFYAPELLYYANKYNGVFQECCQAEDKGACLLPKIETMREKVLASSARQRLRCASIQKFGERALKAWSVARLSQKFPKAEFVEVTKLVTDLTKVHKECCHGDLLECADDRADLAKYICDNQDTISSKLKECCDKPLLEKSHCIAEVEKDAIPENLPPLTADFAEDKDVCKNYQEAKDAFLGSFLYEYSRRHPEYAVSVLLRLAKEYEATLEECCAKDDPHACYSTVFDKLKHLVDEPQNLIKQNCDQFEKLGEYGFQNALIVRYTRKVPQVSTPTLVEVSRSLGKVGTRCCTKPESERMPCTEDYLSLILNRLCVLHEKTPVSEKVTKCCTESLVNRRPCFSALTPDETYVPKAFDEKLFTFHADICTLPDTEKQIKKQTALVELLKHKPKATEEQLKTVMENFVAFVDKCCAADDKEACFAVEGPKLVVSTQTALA

As to DSPLVPFIDFHP [p21], the “Binding of peptide to BSA control wells (percentage of binding)” value with BSA (peptide 1.62 10^−9 M) was 0 ± 0%; with BSA (peptide 1.67 10^−5 M), 1 ± 0%; with BSA (peptide 2.86 10^−9 M), 0 ± 0%; in the test with BSA (peptide 2.94 10^−6 M) it was 0 ± 0%; with BSA (peptide 5.04 10^−10 M), 0 ± 0%; in the test with BSA (peptide 5.20 10^−7 M), 0 ± 0%. The “Binding of peptide to BSA control wells (percentage of binding)” value with BSA (peptide 8.89 10^−11 M) was found to be 0 ± 0%; with BSA (peptide 9.27 10^−8 M) it was 0 ± 0%; with BSA (peptide 9.45 10^−5 M) it was 3 ± 1%.
As to CSSVTAWTTGCG [p65], the “Binding of cyclic peptides to 30H12 antibody in ELISA” value in the test on 30H12 antibody is reported as “highest binding”. For the same sequence, in test [1] (setting [2]), the Fasciculation entry was “opposite effect on fasciculation” and the Neurite outgrowth result was “no effect on neurite outgrowth; also recorded: no significant increase”. Further, in test [1] (setting [3]), the Axonal growth entry was “significant increase in axonal growth” and the “Fasciculation of axon bundles” value is recorded as “clear defasciculation of axon bundles”. For the same sequence, in test [1] (peptide in soluble form, mean length of the longest neurite), the “Increase of neurite outgrowth compared to the controls” value was 34%.
